In this test the test system is Healthy Individual's Peripheral Blood Neutrophil. In words: Inhibition of NET formation in neutrophils pretreated with lactoferrin-derived peptide fragment; DNA concentration in culture supernatant (Picogreen). In kind it is cell-based. Particulars: human neutrophils, pretreatment at room temperature for 30 minutes. As for the experimental part:
Effect of Inhibiting NET Formation Stimulation of Healthy Individual's Peripheral Blood Neutrophil by Pretreatment with Lactoferrin-derived Peptide Fragment
For each round of experiment, 15 ml to 20 ml of peripheral blood was collected from a healthy individual by using an EDTA-containing syringe (with a needle of 18 to 22 G). After collecting the blood, in a 15 ml conical tube charged with 3 ml of Mono-Poly Resolving Medium (Cat No. DSBN100, DS Pharma Biochemical Co., Ltd.), 3.5 ml of the whole blood was gently layered over a lower layer of Mono-Poly Resolving Medium. The resultant 15 ml conical tube was centrifuged with a swing centrifuge at room temperature (15 to 30° C.) at 400×g for 20 minutes, and the conical tube was then gently taken out. An uppermost brown plasma layer and a lymphocyte/monocyte layer thereunder were removed with an aspirator or the like. In addition, a transparent layer under the lymphocyte/monocyte layer was removed as much as possible. […]
A culture supernatant was collected, centrifuged at 200×g for 10 minutes, and the thus obtained supernatant was transferred to a fresh microcentrifuge tube. The amount of DNA was measured by using Picogreen dsDNA assay reagent (P11496 Invitrogen) in accordance with the accompanying protocol.

B1: human lactoferrin: Human lactoferrin protein, Genbank NP_001186078.1 (protein, listed as Homo sapiens)
chain: MRKVRGPPVSCIKRDSPIQCIQAIAENRADAVTLDGGFIYEAGLAPYKLRPVAAEVYGTERQPRTHYYAVAVVKKGGSFQLNELQGLKSCHTGLRRTAGWNVPIGTLRPFLNWTGPPEPIEAAVARFFSASCVPGADKGQFPNLCRLCAGTGENKCAFSSQEPYFSYSGAFKCLRDGAGDVAFIRESTVFEDLSDEAERDEYELLCPDNTRKPVDKFKDCHLARVPSHAVVARSVNGKEDAIWNLLRQAQEKFGKDKSPKFQLFGSPSGQKDLLFKDSAIGFSRVPPRIDSGLYLGSGYFTAIQNLRKSEEEVAARRARVVWCAVGEQELRKCNQWSGLSEGSVTCSSASTTEDCIALVLKGEADAMSLDGGYVYTAGKCGLVPVLAENYKSQQSSDPDPNCVDRPVEGYLAVAVVRRSDTSLTWNSVKGKKSCHTAVDRTAGWNIPMGLLFNQTGSCKFDEYFSQSCAPGSDPRSNLCALCIGDEQGENKCVPNSNERYYGYTGAFRCLAENAGDVAFVKDVTVLQNTDGNNNEAWAKDLKLADFALLCLDGKRKPVTEARSCHLAMAPNHAVVSRMDKVERLKQVLLHQQAKFGRNGSDCPDKFCLFQSETKNLLFNDNTECLARLHGKTTYEKYLGPQYVAGITNLKKCSTSPLLEACEFLRK
On to B1, for which the “DNA concentration in the culture supernatant (release of the DNA due to the NET)” value is “reduced in a concentration-dependent manner”.
